From paper PMC7736812

Target: 70S ribosomes from E. coli MRE600 (vacant) (E. coli)
Experiment: stopped-flow Rayleigh light scattering (325 nm) of 70S dissociation; 70S ribosomes (0.05 uM) rapidly mixed with increasing GTPBP6 with 0.5 mM GTP, phosphoenol pyruvate and pyruvate kinase; 50 mM Tris-HCl pH 7.5, 70 mM NH4Cl, 30 mM KCl, 7 mM MgCl2, 37°C; kapp against GTPBP6 concentration, linear fit: slope = association, intercept = dissociation rate constant, Kd from their ratio

B1: GTPBP6Δ43 (purified recombinant GTPBP6) (domain or fragment)
chain: PGNLEGPWGGGRGLRADGGRSRTGDDEEEPEDADENAEEELLRGEPLLPAGTQRVCLVHPDVKWGPGKSQMTRAEWQVAEATALVHTLDGWSVVQTMVVSTKTPDRKLIFGKGNFEHLTEKIRGSPDITCVFLNVERMAAPTKKELEAAWGVEVFDRFTVVLHIFRCNARTKEARLQVALAEMPLHRSNLKRDVAHLYRGVGSRYIMGSGESFMQLQQRLLREKEAKIRKALDRLRKKRHLLRRQRTRREFPVISVVGYTNCGKTTLIKALTGDAAIQPRDQLFATLDVTAHAGTLPSRMTVLYVDTIGFLSQLPHGLIESFSATLEDVAHSDLILHVRDVSHPEAELQKCSVLSTLRGLQLPAPLLDSMVEVHNKVDLVPGYSPTEPNVVPVSALRGHGLQELKAELDAAVLKATGRQILTLRVRLAGAQLSWLYKEATVQEVDVIPEDGAADVRVIISNSAYGKFRKLFPG
Q: With B1 as the binder, how does the Kd read?
A: 700 nM

Q: What about the koff of the same binder?
A: 0.09 s⁻¹

Q: What about the kon of the same binder?
A: 130000 M⁻¹ s⁻¹
